Key:
[1] = molecular target: murine IL-6 receptor (murine) (UniProt P22272)
[2] = molecular target: recombinant human IL-6 (human)

% Inhibition of B9 cell proliferation driven by 10 pg/ml hIL-6 (MTT, Absorbance570) [2] [% inhibition] | Substance | % Inhibition of B9 cell proliferation driven by 10 pg/ml hIL-6 (MTT, Absorbance570) [1] [% inhibition] | % Inhibition of B9 cell proliferation driven by 1:40 vIL-6 sup (MTT, Absorbance570) [1] [% inhibition]
 | functionally neutralizing monoclonal antibody directed against the murine IL-6R (D7715A7, Pharmigen) | 80 | 53.8
23.4 | monoclonal antibody directed against murine IL-2 (S4B6, Pharmigen) |  | 

Source: patent US6264958
